Assay results reported in patent publication US20220193186A1, “METHOD OF TREATING AND PREVENTING BONE AND JOINT INFECTIONS” (CONTRAFECT CORPORATION, priority 2019, published 2022).
Positions count from the first letter of the chain named. Names and notes keep the numbering of the source. Values after ≈ are worked out from the molar mass of the structure shown.

Legend:
[1] = tested on: methicillin-resistant Staphylococcus aureus IDRL-6169; assay: Rat osteomyelitis model, quantitative culture of tibia (Example 6); format: in vivo, Sprague Dawley rats; conditions: for Mean log10 CFU/g / Median log10 CFU/g: rat tibia bone; for Mean log10 CFU/g reduction: vs no treatment
Experimental: Agents Chemother. 2019 Sep. 23; 63(10). Specifically, osteomyelitis was established in the rats by bending the knee joint, inserting a 21G needle into the tibial process, and injecting 10 μl […] and 50 μl of about 10^6-10^8 colony forming units (cfu) suspension of methicillin-resistant Staphylococcus aureus IDRL-6169.
(§1) The following six treatment groups were identified: (1) control/no treatment (n=18); (2) 60 mg/kg daptomycin (DAP) administered subcutaneously twice daily for 4 days (n=17); (3) 40 mg/kg pp296 administered intravenously daily for 4 days (n=17); (4) 40 mg/kg pp296 administered intravenously daily for 4 days plus 60 mg/kg DAP administered subcutaneously twice daily for 4 days (n=17); (5) 100 mg/kg pp296 administered intravenously once as a single dose on treatment day 1 (n=17); and (6) 100 mg/kg pp296 administered intravenously once as a single dose on treatment day 1 plus 60 mg/kg DAP administered subcutaneously twice daily for 4 days (n=17). When daptomycin was administered together with pp296, it was given 15 minutes prior to pp296, which was maintained on ice.
Animals were sacrificed twelve hours after the last treatment was administered, and the tibia were collected, weighed, and cryopulverized for quantitative bacterial culture. The log10 CFU counts/g of tibia bone was determined using the Wilcoxon rank sum test, adjusted with a false discovery rate approach.

MRSA IDRL-6169 biofilm = assay: Minimum biofilm inhibitory and bactericidal concentrations; format: cell-based, Staphylococcus aureus; conditions: CF-301 testing with 0.5 mM DL-dithiothreitol and 25% horse serum
MRSA IDRL-6169 [2] = assay: Acute MRSA osteomyelitis in rats, quantitative culture of tibia (Example 4); format: in vivo, Sprague Dawley rats; conditions: rat tibia, daptomycin 60 mg/kg i.p. every 12 hours for four days, CF-301 single dose 40 mg/kg tail vein; for mean (±SD) bacterial density: Day 12 (4 days after start of therapy); for reduction compared to untreated rats: Day 12
MRSA IDRL-6169 [3] = assay: MIC by broth microdilution; format: cell-based, Staphylococcus aureus; conditions: MRSA IDRL-6169, broth microdilution, CF-301 testing with 0.5 mM DL-dithiothreitol and 25% horse serum
[4] = Body weight of rats in osteomyelitis model (Example 6); format: in vivo, Sprague Dawley rats; conditions: mean; for Body weight on Day 1: time of surgery (before treatment); for Body weight on Day 8: immediately prior to treatment; for Body weight on Day 12: time of sacrifice, without or with DAP 60 mg/kg
Experimental: as §1
Additionally, body weights of the animals were monitored as a marker of general health status during the study. The mean body weight of the animals at the time of surgery (day 1), immediately prior to treatment (day 8), and at the time of sacrifice (day 12) are shown below in Table 5.

[5] = tested on: S. epidermidis isolate NRS6 biofilms; assay: Disruption of biofilms formed in human synovial fluid (fluorescent imaging); format: cell-based
Experimental: Macroscopic analysis of CF-301 activity on biofilms, which were formed in human synovial fluid, was performed in the manner described in Dastgheyb et al. (2015) JID 211:641-50 and Dastgheyb et al. (2015) AAC 59:e04579-14. Briefly, 10^8 CFUs of S. epidermidis isolate NRS6 were incubated for 24 hours at 37° C. in 24-well plates containing HSF. After biofilm formation, the wells were stained with ethidium bromide (EtBr) and treated with 0.1 or 1 μg/mL CF-301 for 2 hours. The biofilms were visualized by UV fluorescent imaging. Untreated controls were also examined.
The biofilms were also stained with Alexa Flour^488-WGA, which stained the exopolysaccharide in the biofilms (and individual bacteria) and propidium iodide (PI) which stained the entire biofilm. The biofilms were then visualized by fluorescence microscopy. As evidenced in FIG. 3, the S. epidermidis biofilms formed in HSF were eliminated after two hours of treatment with 0.1 ug/mL or 1 ug/mL CF-301.

[6] = after a single dose of 10 mg/kg
[7] = tested on: S. aureus (MRSA strains MW2, ATCC BAA-42); assay: MIC by broth microdilution (CLSI) in caMHB-HSF and caMHB-HSD; format: cell-based
[8] = tested on: multiple drug resistant (MDR) Staphylococcus epidermidis prosthetic knee infection; assay: CF-301 during arthroscopic DAIR in patients with prosthetic knee infection
[9] = tested on: S. epidermidis clinical isolates; assay: MIC by broth microdilution (CLSI) in caMHB-HSF and caMHB-HSD; format: cell-based; conditions: S. epidermidis (N = 53)
From the text: More particularly MIC values for a lysin may be determined against e.g., S. epidermidis or S. aureus in e.g., Mueller-Hinton broth (MHB) supplemented with physiological salt concentrations and synovial fluid, such as human synovial fluid. Minimum Inhibitory Concentrations (MICs) of a lysin against e.g., S. epidermidis may be determined using broth microdilution (BMD) following Clinical and Laboratory Standards Institute (CLSI) methodology (M07-A11, 2018, which is herein incorporated by reference in its entirety) in a non-standard medium (caMHB supplemented to 50% with human synovial fluid (caMHB-HSF)). See Examples.
Minimum Inhibitory Concentrations (MICs) of the CF-301 lysin (SEQ ID NO: 1) against S. epidermidis were determined using broth microdilution (BMD) following CLSI methodology (M07-A11, 2018) in a non-standard medium (caMHB supplemented to 25% with horse serum and 0.5 mM with DTT (caMHB-HSD)) approved for use by the CLSI in antimicrobial susceptibility testing with CF-301 (CLSI, AST Subcommittee Meeting, January, 2018). Activity of CF-301 against S. epidermidis in HSF (Discovery Life Sciences) was similarly determined using BMD in caMHB with 50% HSF (caMHB-HSF). The caMHB-HSF supports the growth and biofilm formation of S. epidermidis as well as S. aureus.

[10] = Pathological slides, rat osteomyelitis model (Example 6); format: in vivo, Sprague Dawley rats; conditions: rats, pp296 line: 40 mg/kg daily dosing (Treatment Group 3)
From the text: These findings are consistent with acute osteomyelitis, and no appreciable differentiation between groups could be made.

[11] = DAP 60 mg/kg s.c. twice daily for 4 days
[12] = CF-301 into the joint during arthroscopic DAIR, daptomycin, linezolid then suppressive tedizolid
[13] = caMHB-HSD (25% horse serum, 0.5 mM DTT)
[14] = caMHB-HSF (50% human synovial fluid)
[15] = pp296 40 mg/kg i.v. daily for 4 days (combination: plus DAP 60 mg/kg s.c. twice daily for 4 days)
[16] = pp296 100 mg/kg i.v. single dose on treatment day 1 (combination: plus DAP 60 mg/kg s.c. twice daily for 4 days)
[17] = groups pp296 40 mg/kg, without or with DAP
[18] = groups pp296 100 mg/kg, without or with DAP

CCCCCCCCCC(=O)N[C@@H](Cc1c[nH]c2ccccc12)C(=O)N[C@H](CC(N)=O)C(=O)N[C@@H](CC(=O)O)C(=O)N[C@@H]1C(=O)NCC(=O)N[C@@H](CCCN)C(=O)N[C@@H](CC(=O)O)C(=O)N[C@H](C)C(=O)N[C@@H](CC(=O)O)C(=O)NCC(=O)N[C@H](CO)C(=O)N[C@@H]([C@H](C)CC(=O)O)C(=O)N[C@@H](CC(=O)c2ccccc2N)C(=O)O[C@@H]1C [daptomycin, reference compound]
Mean log10 CFU/g [1, 11]: 4.29 log10 CFU/g | Median log10 CFU/g [1, 11]: 4.79 log10 CFU/g | Mean log10 CFU/g reduction [1, 11]: −1.14 log10 CFU/g | Minimum biofilm inhibitory concentration (MRSA IDRL-6169 biofilm): 1 µg/mL | minimum biofilm bactericidal concentration (MRSA IDRL-6169 biofilm): 2 µg/mL | mean (±SD) bacterial density (MRSA IDRL-6169 [2]): 4.09 (±0.37) log10 cfu/gram of bone | reduction compared to untreated rats (MRSA IDRL-6169 [2]): 1.04 log10 cfu/gram of bone | MIC (MRSA IDRL-6169 [3]; Staphylococcus aureus, read-out: minimum inhibitory concentration): 0.5 µg/mL (≈ 0.309 µM) | Body weight on Day 1 ([4]; group DAP 60 mg/kg): 339 g

B1: CF-301: PlySs2 lysin of SEQ ID NO: 1, anti-staphylococcal lysin encoded within a prophage of the Streptococcus suis genome (protein, listed as Streptococcus suis)
chain: MTTVNEALNNVRAQVGSGVSVGNGECYALASWYERMISPDATVGLGAGVGWVSGAIGDTISAKNIGSSYNWQANGWTVSTSGPFKAGQIVTLGATPGNPYGHVVIVEAVDGDRLTILEQNYGGKRYPVRNYYSAASYRQQVVHYITPPGTVAQSAPNLAGSRSYRETGTMTVTVDALNVRRAPNTSGEIVAVYKRGESFDYDTVIIDVNGYVWVSYIGGSGKRNYVATGATKDGKRFGNAWGTFK
ethidium bromide staining of biofilm structures formed by NRS6 in human synovial fluid ([5]; 0.1 or 1 μg/mL CF-301 for 2 hours, UV fluorescent imaging, FIG. 2): eliminated | S. epidermidis biofilms formed in HSF, Alexa Fluor 488-WGA / propidium iodide fluorescence microscopy ([5]; two hours of treatment with 0.1 ug/mL or 1 ug/mL CF-301, FIG. 3): eliminated | Levels of CF-301 in bone relative to plasma levels [6]: 10-15% | Minimum biofilm inhibitory concentration (MRSA IDRL-6169 biofilm): 1 µg/mL | minimum biofilm bactericidal concentration (MRSA IDRL-6169 biofilm): 4 µg/mL | CF-301 MIC ([7]; S. aureus strain ATCC BAA-42, caMHB-HSD): 0.5 µg/mL | CF-301 MIC ([7]; S. aureus strain ATCC BAA-42, caMHB-HSF): 0.03 µg/mL | CF-301 MIC ([7]; S. aureus strain MW2, caMHB-HSD): 0.5 µg/mL | CF-301 MIC ([7]; S. aureus strain MW2, caMHB-HSF): 0.03 µg/mL | mean (±SD) bacterial density (MRSA IDRL-6169 [2]): 4.65 (±0.65) log10 cfu/gram of bone | reduction compared to untreated rats (MRSA IDRL-6169 [2]): 0.65 log10 cfu/gram of bone | minimum inhibitory concentration (MRSA IDRL-6169 [3]): 0.5 µg/mL | outcome after 1 year follow up in the two septic arthritis patients [8, 12]: favorable | outcome at 6 months in the two patients with fistula at baseline [8, 12]: recurrence of the fistula | adverse events during arthroscopy ([8]; four patients, CF-301 (75 mg/mL; 30 mL) into the joint during arthroscopy, followed by antibiotics): No adverse events | CF-301 MIC, MIC50 [9, 13]: 0.5 µg/mL | CF-301 MIC, MIC90 [9, 13]: 0.5 µg/mL | CF-301 MIC, Range [9, 13]: 0.25 to 2 µg/mL | CF-301 MIC, MIC50 [9, 14]: 0.015 µg/mL | CF-301 MIC, MIC90 [9, 14]: 0.125 µg/mL | CF-301 MIC, Range [9, 14]: 0.0078 to 2 µg/mL

B2: pp296: modified PlySs2 lysin, SEQ ID NO: 6; L92W, V104S, V128T and Y137S, Y164K, N184D, S198Q (protein)
chain: B1 chain with L92W, V104S, V128T, Y137S, Y164K, N184D, S198Q
Mean log10 CFU/g [1, 15]: 4.94 log10 CFU/g | Median log10 CFU/g [1, 15]: 5.27 log10 CFU/g | Mean log10 CFU/g [1, 16]: 4.81 log10 CFU/g | Median log10 CFU/g [1, 16]: 4.99 log10 CFU/g | Mean log10 CFU/g reduction [1, 15]: −0.49 log10 CFU/g | Mean log10 CFU/g reduction [1, 16]: −0.61 log10 CFU/g | Body weight on Day 8 [4, 17]: 313 g | Body weight on Day 8 [4, 18]: 312 g | Body weight on Day 12 ([4]; pp296 40 mg/kg i.v. daily for 4 days): 311 g | Body weight on Day 12 ([4]; pp296 100 mg/kg i.v. single dose): 312 g | Body weight on Day 1 [4, 17]: 342 g | Body weight on Day 1 [4, 18]: 344 g | Pathological slides (marrow cellularity) [10]: only possible hypercellularity
